Test: yeast display, Sf9 membrane polyspecificity reagent, FACS + sequencing; frameworks hold sequencing errors
Procedure, shortened: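 Nanobodies from a synthetic yeast display library (Saccharomyces cerevisiae BJ5465), induced 36–48 hours with galactose, were stained 1 hour at 4 °C with 10% biotinylated, detergent-solubilized Sf9 membrane reagent, enriched on streptavidin microbeads, then FACS-sorted. Anti-HA (expression) and streptavidin (reagent binding) fluorescence set low and high (top ~1%) gates. Polyreactivity labels come from the gate of origin. Genes were colony-PCR amplified, MiSeq 2 × 250 sequenced and filtered by CDR length.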

Sequence	polyreactivity (PSR sort gate)
QVQLVESGGGLVQAGGRLRLSCAASGFTLWGYAMGWYRQAPGKERELVASMSWSGGGTNYADSVKGRFTISRDNAKNTVYLQMNSLKPEDPAVYYCAAQYYTVSRYYGVERKFGYWGQGSQVTVSS	high polyreactivity
QVQLVESGGGLVQAGGRLRLSCAASGGIFGQNAMRWYRQAPGKERELVAGISASGGSTYYADSVKGRFTISRDNAKNTVYLQRNSLKPEDTAVYYCAARTKRRRYDYWGQGTQVTVSS	high polyreactivity
QVQLVESGGGLVQAGGRLRLSCAASGGIFIKNAMGWYRQAPGKERELVAGISSGGNTYYADSVKGRFTISRDNAKNTVYLQMNSLKPEDTAVYYCAVRYYRRFGPLYDSWGQGTHVTVSS	low polyreactivity
QVQLVESGGGLVQAGGRLRLSCAASGGIIWAYAMGRYRQAPGKERELVAAISSSTGTTYYADSVKGRFTISRDNAKNTVYLQMNSLKPEETAVYYCAAYAYIGDYVSYYGGDYWGQGTQVTVSS	low polyreactivity
QVQLVESGGGLVQAGGRLRLSCAASGGTFSSNAMGWYRQSPGKERELVAAITWSGGSTYYADSVKGRFTISRDNAKNTVYLQMNSLKPEDTAVYYCNARNQWRTVGKYDYWGQGTQVTVSS	low polyreactivity
QVQLVESGGGLVQAGGRLRLSCAASGIIFKYNAMGWYIQAPGKEREFVAAITGSGGSTYYADSVKGRFTISRDNAKNTVYLQMNSLKPEDTAVYYCARPQWRDWYGYWGQGTQVTVSS	low polyreactivity
QVQLVESGGGLVQAGGRLRLSCAASGIIFTPYAMGRYRQAPGKERELVAAISWIGGRTYYADSVKGRFTISRDKAKNTVYLQMNSLKPEDTAVYYCAASYRAWSGNYWGQGTQVTVSS	high polyreactivity
QVQLVESGGGLVQAGGRLRLSCAASGITFYDYAMGWYRQAHGKERELVAVITRRGGSTYYAHSVKGRFTISRDNAKNTVYLQMNSLKPEDTAVYYCNADRTAPERYSRVPSSDSWGQGTQVTVSS	high polyreactivity
QVQLVESGGGLVQAGGRLRLSCAASGITSLDNAMGWYRQAPGKQRELVAGIKSGGSTNYADSVKGRFTISRDNAKNTVYLQMNSLKPEDTAVYYCAADDFIGSGRLVARGRYDYWGQGTQVTVSS	low polyreactivity
QVQLVESGGGLVQAGGRLRLSCAASGLIFPAYAMGWYRQAPGKERELVATITWRGGSTYYADSVKGRFTISRDNAKNTVYLQMNSLKPEDTAVDYCATRPRYYYFRYDYWGQGTQVTVSS	high polyreactivity
QVQLVESGGGLVQAGGRLRLSCAASGLIFRAYAMGWYRQAPGKERELVAAISRRGGSTYYADSVKGRFTISRDNAKNTVYLQMNSLKPEDTAVYYCAATSRVSKSHLYGYWGQGTQVTVSS	high polyreactivity
QVQLVESGGGLVQAGGRLRLSCAASGLIFWFNTMGWYRQAPGKERELVAAITSGGGSTYYADSVKGRFTISRDNAKNTVYLQMNSLKPEDTAVYYCNAGAGRWRARQWHDYWGQGTQVTVSS	low polyreactivity
QVQLVESGGGLVQAGGRLRLSCAASGLIFYVYAMGWYRQEPGKERELVASITWSGGRTYYADSVKGRFTISRDNEKNTVYLQMNSLKPEDTAVYYCATDLIQGAAPFRYDYWGQGTQVTVSS	low polyreactivity
QVQLVESGGGLVQAGGRLRLSCAASGLTFGGNAMGWYRQAPGKERELVAAISWSDDTTDYADSVKGLFTISRDNAKNTVYFQMNRLKPEDTAVYYCAARLPFEHVDYWGQGTQVTVSS	low polyreactivity
QVQLVESGGGLVQAGGRLRLSCAASGRIFATNAMGWYRQAPGKERELVATITRSAGRTYYADSVKGRFTISRDNAKNTVYLQMNSLKPEDTAVYYCAADGYSTAVDDTVRYIVEYEFWGQGTQVTVSS	low polyreactivity
QVQLVESGGGLVQAGGRLRLSCAASGRIFDRYAMGWYRQAPGKERELVAGISFSGGRTYYADSVKGRFTISRDNAKNTVYLQMNSLKPEDTAVYYCNTVTSGFLSYDYWGQGTQVTVSS	high polyreactivity
QVQLVESGGGLVQAGGRLRLSCAASGRIFKSNAMGWYRQAPGKERELVATIDVIGTSTYYADSVKGRFTISRDNAKNTVYLQMNSLKPEDTAVYYCAAVGWGGWSDSYDYWGQGTQVTVSS	low polyreactivity
QVQLVESGGGLVQAGGRLRLSCAASGRIFKTNAMGWYRQAPGKERELVPAISKRGGRTYYADSVKGRFTISRDNAKNTVYLQMNSLKPEDTAVYYCATRYSGYSLGDYWGQGTQVTVSS	high polyreactivity
QVQLVESGGGLVQAGGRLRLSCAASGRIFLFYDMGWYRQAPGKERELVATISFRRGSTYYADSVKGRFTISRDNAKNTVYLQMNSLKPEDTAVYYCAKQNKRGYSTSAYYYWGQGTQVTVSS	low polyreactivity
QVQLVESGGGLVQAGGRLRLSCAASGRIFLGNVMGWYRQAPGKERELVAAISSGGSTNYADSVKGRFTISRDNAKNTVYLQMNSLKPEDTAVYYCAAYFVRDWKLYYYWGQGTQVTVSS	low polyreactivity
QVQLVESGGGLVQAGGRLRLSCAASGRIFRGYAMGWYRQAPGKERELVAGITWGGGRTYYADSVKGRFTISRDNAKNTVYLQLNSLKPEDTAVYYCAAYYSQDSRRKYDYWGQGTQVTVSS	high polyreactivity
QVQLVESGGGLVQAGGRLRLSCAASGRIFTYNAMGWYRQAPGKEREFVAAISSGGSTTYADSVKGRFTISRDNAKNTVYLQMNSRKPEDTAVYYCAARGWRFAIIEYEYWGQGTQVTVSS	low polyreactivity

Sequence	polyreactivity (PSR sort gate)
QVQLVESGGGLVQAGGRLRLSCAASGRIFVYYAMGWYRQAPGQERELVAAITYSVDSTYYADSVKGRFTISRDNAKNTVYLQMNSLKPEDTAVYYCATDVDWAYGYQYEYWGQGTQVTVSS	low polyreactivity
QVQLVESGGGLVQAGGRLRLSCAASGRIFYGNAMGRYRPAPVKERELVATISSSGGSTTYADSVKGRFTISRDNAKYTVYLQMNSLKPEDSAVYYCADQGYWTGYDYWGQGSQVTVSS	high polyreactivity
QVQLVESGGGLVQAGGRLRLSCAASGRIFYYYAMGWYRQAPGKERELVAAINRSGGSTYYADSVKGRFTISRDNAKNTVYLQMNSLKPEDTAVYSCASYDYWGQGTQVTVSS	high polyreactivity
QVQLVESGGGLVQAGGRLRLSCAASGRISYYYTMGWYRQAPGKERQLVAAISWSGGTTYYADSVKGRFTISRDNAKNTVYLQMNSLKPEDTAVYYCAAREYYTDVHGTRRYDYWGQGTQVTVSS	low polyreactivity
QVQLVESGGGLVQAGGRLRLSCAASGRTFGRYAMGWYRQAPGKERELVAAITGGVITTYADSVKGRFTISRDNAKNTVYLQMNSLKPEDTAVYYCAARYNVFPSPHYYYWGQGTQVTVSS	low polyreactivity
QVQLVESGGGLVQAGGRLRLSCAASGRTFGVYAMGWYRQSPGKEREFVGVISWSDDSTYYADSVKGRFTISRDNAKNTVYLQMNSLKPEDTAVYYCNADDYLVYSGSHYGYWGQGTQVTVSS	low polyreactivity
QVQLVESGGGLVQAGGRLRLSCAASGRTFKLYAMGWYRQAPGKERELVAAISGRGGSTYYADSVKGRFTISRDNAKNTVYLQMNSLKPEDTAVYYCNWYGKYEYWGQGTQVTVSS	high polyreactivity
QVQLVESGGGLVQAGGRLRLSCAASGRTFRYNAMGGSRQAPGKERELVAAISGGDSTYYADSEKGRFTFSRDNAKNTVYLQMNCLKPEDTAVYYCAGRTYRRRVSQSVSRNDYWGQGTQVTVSS	high polyreactivity
QVQLVESGGGLVQAGGRLRLSCAASGRTFTSNAMGWYRQAPGKERELVAAIDDGGSTNYADSVKGRFTISRDNAKNTVYLQMNSLKPEDTAVYYCNAPITWQYRGFRRRFDYWGQGTQVTVSS	low polyreactivity
QVQLVESGGGLVQAGGRLRLSCAASGRTFVPYAMGWYRQPPGKERELVAAISYSGDSTYYADSEKGRFTISRDNAKNTVYLQMNSLKPEDTAVYYCAARGGNPFYYWGQGTQVTVSS	low polyreactivity
QVQLVESGGGLVQAGGRLRLSCAASGRTFYINTMGWYRQAPGKERELVAAISSSGDSTYYADSVKGRFTISRDNAKNTVYLQMNSLKPEDTAVYYCATDYGWYDYWGQGTQVTVSS	low polyreactivity
QVQLVESGGGLVQAGGRLRLSCAASGRTFYWYAMGWYRQAPGKETELVAAISSGGSTYYADSVKGRFTISRDNAKNTVYLQMNSLKPEDTAVYYCAAVTPSGAHRSAYHPISDYWGQGTQVTVSS	low polyreactivity
QVQLVESGGGLVQAGGRLRLSCAASGRTLATFAMGWSRQAPGKERELVAAITFSGGGSTYYADSVKGRFTISRDNAKNTVYLQMKSLKPEDTADYYCAAGPYYSLFGYGSRDNYRYYYWGQGTQVTVSS	high polyreactivity
QVQLVESGGGLVQAGGRLRLSCAASGRTLSRYAMGWYRQAPGKERELVAAINNGGNTNYADSVKGRFTISRDNAKNTVYLQMNSLKPEDTAVYYCAVRWYPRYGSSYDYWGQGTQVTVSS	high polyreactivity
QVQLVESGGGLVQAGGRLRLSCAASGRTSFDYSMGWYRQAPGKDRELVAAITSTGGSTYYADSVKGRFTISRDNAKYTVYLQMNSLKPEDTAVYYCAAVWFTHWGQYQVLEVLYDYWGQGTQVTVSS	low polyreactivity
QVQLVESGGGLVQAGGRLRLSCAASGRTYYTYAMGWYRQAPGKERELVAAITWDGGSTYYADSVKGRFTISRDNAKNTVYLQMNSLKPEDTAVYYCADDLYDTYGTFDYWGQGTQVTVSS	low polyreactivity
QVQLVESGGGLVQAGGRLRLSCAASGSIFDIYAMGLYRQAPGKERELVASIRRRGGSTYYADSVKGRFTISRDNAKNTVYLQMNSLKPEDTAVYYCNARRVWLRTTGTNWPERGYWGQGTQVTVSS	high polyreactivity
QVQLVESGGGLVQAGGRLRLSCAASGSIFDIYAMGWYRQAPGKERELVASIRRRGGSTYYADSVKGRFTISRDNAKNTVYLQKNSLKPEDTAVYYSNARRVWLRTTGTNWPERGYWGQGTQVTVSS	high polyreactivity
QVQLVESGGGLVQAGGRLRLSCAASGSIFDRYAMGWYRQAPGKERELVAAITRSGGSTYYADSVKGRFTISRDNAKNTVYLQMNSLKPEDTAVYYCNKVYPPRSIPYDFCGQGTQVTVSS	low polyreactivity
QVQLVESGGGLVQAGGRLRLSCAASGSIFGKYAMGWYRQAPGKERELVAAISKGGGRTSYADSVKGRFTISRDNAKNTVYLQMNSLKPEDTAVYYCNRYTQYRDRSDNHWGQGTQVTVSS	high polyreactivity
QVQLVESGGGLVQAGGRLRLSCAASGSIFLHNAMGWYRQAPGKERELVAAISGTGGRTYYADSVKGRFTISRDNAKNTVYLQMNSLKPEDTAVYYCAVVFYHRHSYYWGQGTQVTVSS	high polyreactivity
